Laboratory results taken from paper PMC10009750, “Development of Selective ADAMTS-5 Peptide Substrates to Monitor Proteinase Activity” (Journal of Medicinal Chemistry, 2023).
Non-standard residues stand in square brackets, D forms with d. No end group written: not given here. Tyr(3-NO2) = N[C@@H](Cc1ccc(O)c([N+](=O)[O-])c1)C(=O)O; 2Abz = Nc1ccccc1C(=O)O

What was measured:
[1] = molecular target: T1, TS5-5 (combined catalytic and disintegrin domain of ADAMTS-5) (Homo sapiens, UniProt Q9UNA0); assay: Cleavage of FRET peptide substrates by TS5-5 in solution (activity/selectivity studies); format: biochemical; conditions: substrate 20 μM, TNC buffer with 0.005% (v/v) Brij-35, 37 °C; mean of 3–4 independent experiments in triplicate
T1 construct: ADAMTS-5 (i.e. TS5-5, residues 264–555); FLAG; made in house; host or cells: HEK293 cells (previously transfected stocks)
T1 sequence (Q9UNA0 264-555): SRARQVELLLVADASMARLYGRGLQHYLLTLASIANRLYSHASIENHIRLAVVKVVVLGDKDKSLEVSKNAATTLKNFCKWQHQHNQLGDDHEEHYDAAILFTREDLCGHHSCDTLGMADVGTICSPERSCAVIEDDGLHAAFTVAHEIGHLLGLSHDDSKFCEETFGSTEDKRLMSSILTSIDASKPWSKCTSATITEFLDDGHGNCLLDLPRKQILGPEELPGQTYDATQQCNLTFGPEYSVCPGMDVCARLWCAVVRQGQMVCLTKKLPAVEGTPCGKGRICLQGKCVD
Method: (§1) All proteinase assays were performed at 37 °C in a SpectraMax M5 spectrophotometer (Molecular Devices, San Jose, USA) using a 96-well black microplate (Greiner bio-one, Stonehouse, UK) unless otherwise stated. […] N-TIMP-3 was purified as described previously[30] and CT-1746 was a gift from Dr. Yoshifumi Itoh (Kennedy Institute of Rheumatology, University of Oxford). All analyses were carried out using Prism 9 software (GraphPad, La Jolla, CA, USA).
To test whether active TS5-5 had been purified, three concentrations of proteinase were assayed. A solution of Abz-TESE↓SRGAIY-Dpa-KK-NH2 (22.22 μM) in freshly prepared TNC buffer with 0.02% (v/v) Brij-35 (180 μL) was added to a 96-well black microplate in triplicate for each proteinase concentration. A substrate-only background control was also added in triplicate (180 μL). The resultant solutions were incubated at 37 °C (30 min). TS5-5 proteinase in TNC buffer with 0.02% (v/v) Brij-35 (20 μL) was added to wells to give final proteinase concentrations of 80 nM, 40 nM and 20 nM. TNC buffer with 0.02% (v/v) Brij-35 (20 μL) was also added to background control wells. The change in RFU was measured at 37 °C for 1 h, with readings every 20 s. Following subtraction of background fluorescence intensity, linear regression analysis of the linear part of each curve was used to determine the cleavage rate, which was expressed as the mean ± SEM in RFU s^–1. For cases where a single concentration of TS5-5 or TS4-4 was assayed, the same procedure was used but with 0.005% (v/v) Brij-35 and using the 5-FAM-AE↓LQGRPISIAK-TAMRA substrate for TS4-4 (0.56 μM). To convert cleavage rates to nM s^–1 nM^–1, the rate in RFU s^–1 was divided by the final concentration of proteinase (nM), then divided by the gradient of the calibration curve for Abz or 5-FAM (expressed in RFU nM^–1).
(§2) Selectivity studies are described for Abz-TESE↓SRGAIY-Dpa-KK-NH2, the library parent peptide 3, and hit peptides 18–26. A solution of Abz-TESE↓SRGAIY-Dpa-KK-NH2 (22.22 μM) in freshly prepared TNC buffer with 0.005% (v/v) Brij-35 (90 μL) was added to a 96-well clear bottom microplate (Greiner bio-one, Stonehouse, UK) in triplicate. A substrate-only background control was also added in triplicate (90 μL). The resultant solutions were incubated at 37 °C (30 min). An ADAMTS or MMP proteinase was added to substrate wells (10 μL) to give a final proteinase concentration of either 50–90 nM (TS4-4), 25–200 nM (TS5-5), 5–10 nM (MMP-2ΔC), 30 nM (MMP-9ΔC), 92 nM (MMP-1), or 3 μM (MMP-3). TNC buffer with 0.005% (v/v) Brij-35 was added to substrate-only control wells (10 μL). The relative fluorescence intensity was measured at 37 °C for 1 h with readings every 20 s. Activity was read from underneath the microplate, which was covered with a low evaporation lid. […] For each ADAMTS and MMP proteinase, the assay was performed 2–4 times. […] Final rates were expressed as a percentage of substrate cleavage by TS5-5 (mean ± SEM) or in μM s^–1 μM^–1 of proteinase.

[2] = system: MMP-9ΔC (catalytic domain of MMP-9); assay: Selectivity studies: cleavage of FRET peptide substrates by MMP-9ΔC; format: biochemical; conditions: substrate 20 μM, after 48 h at an MMP-9 concentration of 30 nM, 37 °C
Method: as §1, §2

[3] = molecular target: T2, TS5-5 (ADAMTS-5) (Homo sapiens, UniProt Q9UNA0); assay: Determination of kinetic parameters (kcat and Km) for substrate cleavage by TS5-5, inner-filter corrected; format: biochemical; conditions: for decrease in Km compared to the current substrate / lower catalytic rate constant (kcat) compared to the current substrate: TS5-5
T2 construct: ADAMTS-5 (i.e. TS5-5, residues 264–555); FLAG; made in house; host or cells: HEK293 cells (previously transfected stocks)
T2 sequence (Q9UNA0 264-555): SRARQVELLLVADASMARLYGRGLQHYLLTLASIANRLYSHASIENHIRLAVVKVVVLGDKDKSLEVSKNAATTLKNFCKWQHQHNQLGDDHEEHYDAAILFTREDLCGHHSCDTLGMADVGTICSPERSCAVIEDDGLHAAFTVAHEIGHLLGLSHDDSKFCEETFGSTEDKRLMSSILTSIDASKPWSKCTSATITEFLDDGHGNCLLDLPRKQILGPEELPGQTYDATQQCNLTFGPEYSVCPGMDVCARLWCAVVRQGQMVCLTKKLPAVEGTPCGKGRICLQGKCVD
Method: A solution of Abz-TESE↓SRGAIY-Dpa-KK-NH2/3/26 (5 mM) or 19/23 (1 mM) in DMSO underwent a 2-fold serial dilution with freshly prepared TNC buffer containing 0.005% (v/v) Brij-35. This gave initial concentrations in the following range: 222.22 to 0.87 μM (Abz-TESE↓SRGAIY-Dpa-KK-NH2/3/23/26) and 177.78 to 1.39 μM (19). Eight substrate concentrations (180 μL) within these ranges (including outer numbers) were added to a 96-well black microplate in triplicate and incubated at 37 °C (20 min). TNC buffer with 0.005% (v/v) Brij-35 was added to substrate-only control wells in a single replicate (180 μL). TS5-5 proteinase was thawed from −80 or −20 °C, made up in TNC buffer with 0.005% (v/v) Brij-35 (300 nM) and added to substrate wells (20 μL). TNC buffer was added to substrate-only control wells (20 μL). Fluorescence intensity was measured at 37 °C for 1 h with readings every 20 s. The rate of substrate cleavage was determined at each substrate concentration and expressed as the mean ± SEM in μM s^–1. The subsequent data was fitted to the Michaelis–Menten eq 2: [drawing 2] 2 where v is the rate of the reaction, Vmax is the maximal rate of the reaction, Km is the Michaelis constant, and [S] is the substrate concentration. This equation enabled the Km value to be determined. The catalytic rate constant kcat was determined from eq 3: [drawing 3] 3 where [E] is the concentration of proteinase, and kcat and Vmax are as defined previously. These initial Km and kcat parameters were determined from n = 3–4 independent experiments with final values for these parameters reported after a correction for the inner-filter effect.
This was performed based on the protocol described in Liu et al.([40]) to correct for quenching of the released Abz fluorophore by uncleaved substrate. Two sets of initial substrate concentrations were prepared as described in the previous section. Both sets of substrate concentrations (180 μL) were added to a 96-well black microplate in triplicate. Two buffer-alone controls with TNC buffer containing 0.005% (v/v) Brij-35 (180 μL) were also added in triplicate. All solutions were incubated at 37 °C (20 min). Abz fluorophore (1 M) in DMSO was serially diluted to 1 mM in DMSO, before further dilution to 100 μM using TNC buffer containing 0.005% (v/v) Brij-35. TNC buffer containing 0.005% (v/v) Brij-35 (20 μL) was added to the first set of substrate concentrations as well as to the first buffer-alone control. Abz fluorophore (20 μL, 100 μM) was added to the second set of substrate concentrations as well as the second buffer-alone control. The end-point fluorescence intensity was measured at 37 °C using λex = 300 nm and λem = 430 nm. At each substrate concentration, […] to give the actual fluorescence of the Abz fluorophore (RFUAbz). These values were divided by RFUAbz at a substrate concentration of 0 μM to give the correction factor for each concentration. The rates for each substrate concentration described in the previous section were divided by their respective correction factors (Tables S6–S10) to deliver the inner-filter corrected kcat and Km values.

[4] = molecular target: T3, TS4-4 (ADAMTS-4) (Homo sapiens, UniProt O75173); assay: Selectivity studies: cleavage of FRET peptide substrates by TS4-4; format: biochemical; conditions: substrate 20 μM, TS4-4 50–90 nM, TNC buffer with 0.005% (v/v) Brij-35, 37 °C; mean of 3–4 independent experiments in triplicate
T3 construct: TS4-4, TS5-5 = catalytic and disintegrin domains; made in house; host or cells: HEK293 cells (previously transfected stocks)
T3 sequence (O75173 213-519 limits assumed): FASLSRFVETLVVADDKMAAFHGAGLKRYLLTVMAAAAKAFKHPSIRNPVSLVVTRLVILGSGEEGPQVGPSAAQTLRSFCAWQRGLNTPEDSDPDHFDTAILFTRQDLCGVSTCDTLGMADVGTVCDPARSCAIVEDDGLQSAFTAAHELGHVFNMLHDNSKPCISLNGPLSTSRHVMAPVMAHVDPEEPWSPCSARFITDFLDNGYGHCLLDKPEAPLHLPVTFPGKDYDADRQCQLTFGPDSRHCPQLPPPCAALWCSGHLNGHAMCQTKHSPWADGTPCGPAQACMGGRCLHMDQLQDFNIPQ
Method: as §1, §2

[5] = molecular target: combined catalytic and disintegrin domain of ADAMTS-5 (TS5-5) (UniProt Q9UNA0)
[6] = TS5-5, TNC buffer with 0.005% (v/v) Brij-35, 37 °C, corrected for inner filter effect, mean ± SEM from 3–4 independent experiments in triplicate
[7] = supplementary CSV copy of Table 3, TS5-5, 37 °C

KY(NO2)NDTESOAK(Abz)AHFUKG [Compound 24]
rate of cleavage by TS5-5 [1]: 1.41 × 10^–4 μM s^–1 μM^–1
cleavage by MMP-9ΔC [2]: no signs of cleavage

KY(NO2)NESESKAK(Abz)VHYKKG (K[Tyr(3-NO2)]NESESKAK(2Abz)V-{H2N-Tyr-Lys-Lys-Gly}) [Compound 25]
rate of cleavage by TS5-5 [1]: 1.78 × 10^–2 μM s^–1 μM^–1
cleavage by MMP-9ΔC [2]: no signs of cleavage

KY(NO2)QDSESBAK(Abz)JHYUKG [Compound 20]
rate of cleavage by TS5-5 [1]: 1.22 × 10^–3 μM s^–1 μM^–1
cleavage by MMP-9ΔC [2]: no signs of cleavage

KY(NO2)SESESRGK(Abz)IYYKKG (K[Tyr(3-NO2)]SESESRGK(Abz)IYYKKG) [Compound 23]
decrease in Km compared to the current substrate [3]: ~2 fold
lower catalytic rate constant (kcat) compared to the current substrate [3]: ~3 fold
Km [3, 6]: 64.6 ± 4.6 µM
kcat [3, 6]: 1.14 ± 0.11 s⁻¹
kcat/Km [3, 6]: 18200 ± 2940 M⁻¹ s⁻¹
kcat [3, 7]: 1.14 ± 0.11 s⁻¹

KY(NO2)TENESRGK(Abz)IYYKKG (K[Tyr(3-NO2)]TENESRGK(Abz)IYYKKG) [Compound 19]
rate of cleavage by TS4-4 [4]: 0.08–0.10 μM s^–1 μM^–1
decrease in Km compared to the current substrate [3]: ~4 fold
lower catalytic rate constant (kcat) compared to the current substrate [3]: ~7 fold
Km [3, 6]: 30.5 ± 2 µM
kcat [3, 6]: 0.53 ± 0.014 s⁻¹
kcat/Km [3, 6]: 17500 ± 1080 M⁻¹ s⁻¹
kcat [3, 7]: 0.53 ± 0.014 s⁻¹

KY(NO2)TETESOAK(Abz)IYFKKG [Compound 22]
rate of cleavage by TS5-5 [1]: 7.38 × 10^–2 μM s^–1 μM^–1

ortho-aminobenzoyl(Abz)-TESE↓SRGAIY-N-3-[2,4-dinitrophenyl]-L-2,3-diaminopropionyl(Dpa)-KK-NH2 (peptide)
Km of cleavage of the FRET peptide by TS5-5 (Michaelis-Menten fit, corrected for the inner-filter effect, 37 °C, TNC buffer with 0.005% Brij-35) [5]: 125 µM

K[Tyr(3-NO2)]TENESRGK(2Abz)IYYKKG [KY(NO2)TENESRGK(Abz)IYYKKG (19)]
Km of cleavage of the FRET peptide by TS5-5 (Michaelis-Menten fit, corrected for the inner-filter effect, 37 °C, TNC buffer with 0.005% Brij-35) [5]: 30.5 µM

K[Tyr(3-NO2)]TESESRGK(2Abz)IYYKKG [KY(NO2)TESESRGK(Abz)IYYKKG (3)]
Km of cleavage of the FRET peptide by TS5-5 (Michaelis-Menten fit, corrected for the inner-filter effect, 37 °C, TNC buffer with 0.005% Brij-35) [5]: 29.5 µM

K[Tyr(3-NO2)]SENESRGK(2Abz)IYYKKG [KY(NO2)SENESRGK(Abz)IYYKKG (26)]
Km of cleavage of the FRET peptide by TS5-5 (Michaelis-Menten fit, corrected for the inner-filter effect, 37 °C, TNC buffer with 0.005% Brij-35) [5]: 76.9 µM
